# Measurements as given in patent US20250276018A1 (AFFYIMMUNE THERAPEUTICS, published 2025).
# Read-outs that look alike come from different tables or passages of the source.
# Key:
# [1] = biological target: T1, c-MET on human target cells (human, UniProt P08581 25-1390); assay: cell-based or functional assay
# [2] = biological target: T2, AF647 labeled c-met protein (UniProt P08581 25-932, limits assumed, labeled with AlexaFluor 647 (AF647)); assay: flow cytometry, AF647-labeled c-met protein titrated on CAR-T cells (Round 1)
# T2 construct: Soluble labeled c-met protein titrated on CAR-T cells
# Protocol: (§1) Binding of labeled c-MET to CAR-T cells expressing the affinity tuned c-MET scFvs was evaluated by transducing lentivirus anti-c-MET CAR particles into human T cells to form c-MET CAR-T cells incubated with AF647-labeled c-MET. […] Following a 48 hr. incubation at 37° C., the culture media was brought up to […] per well and incubated at 37° C. for 10 days.
# (§2) Cells were stained on ice for 30 mins and then washed with PBS. After washing, residually bound protein on CAR T cells were measured on a flow cytometer (Beckman, CytoFLEX®). The resulting binding data was fit using a non-linear regression analysis on GraphPad Prism to calculate half effective dose concentration (EC₅₀) values. The results of this analysis are shown in FIGS. 2-5 and Tables 2-5 below.
# [3] = biological target: T1, c-MET on human target cells; assay: cell-based or functional assay; remark: listed apart in the source
# [4] = biological target: T1, c-MET on human target cells; assay: cell-based or functional assay; remark: listed apart in the source
# [5] = biological target: T1, c-MET on human target cells; assay: cell-based or functional assay; remark: listed apart in the source
# [6] = biological target: T1, c-MET on human target cells; assay: cell-based or functional assay; remark: listed apart in the source
# [7] = biological target: T1, c-MET on human target cells; assay: cell-based or functional assay; remark: listed apart in the source
# [8] = biological target: T2, AF647 labeled c-met protein; assay: flow cytometry, AF647-labeled c-met protein titrated on CAR-T cells (Round 2)
# Protocol: as §1, §2
# [9] = biological target: T1, c-MET on human target cells; assay: cell-based or functional assay; remark: listed apart in the source
# [10] = biological target: T1, c-MET on human target cells; assay: cell-based or functional assay; remark: listed apart in the source
# [11] = biological target: T1, c-MET on human target cells; assay: cell-based or functional assay; remark: listed apart in the source
# [12] = biological target: T1, c-MET on human target cells; assay: cell-based or functional assay; remark: listed apart in the source
# [13] = biological target: T1, c-MET on human target cells; assay: cell-based or functional assay; remark: listed apart in the source
# [14] = biological target: T2, AF647 labeled c-met protein; assay: flow cytometry, EC50 relative to parental Affy7 CAR-T cells (Round 2)
# Protocol: as §1, §2
# T2 sequence (P08581 25-932 limits assumed): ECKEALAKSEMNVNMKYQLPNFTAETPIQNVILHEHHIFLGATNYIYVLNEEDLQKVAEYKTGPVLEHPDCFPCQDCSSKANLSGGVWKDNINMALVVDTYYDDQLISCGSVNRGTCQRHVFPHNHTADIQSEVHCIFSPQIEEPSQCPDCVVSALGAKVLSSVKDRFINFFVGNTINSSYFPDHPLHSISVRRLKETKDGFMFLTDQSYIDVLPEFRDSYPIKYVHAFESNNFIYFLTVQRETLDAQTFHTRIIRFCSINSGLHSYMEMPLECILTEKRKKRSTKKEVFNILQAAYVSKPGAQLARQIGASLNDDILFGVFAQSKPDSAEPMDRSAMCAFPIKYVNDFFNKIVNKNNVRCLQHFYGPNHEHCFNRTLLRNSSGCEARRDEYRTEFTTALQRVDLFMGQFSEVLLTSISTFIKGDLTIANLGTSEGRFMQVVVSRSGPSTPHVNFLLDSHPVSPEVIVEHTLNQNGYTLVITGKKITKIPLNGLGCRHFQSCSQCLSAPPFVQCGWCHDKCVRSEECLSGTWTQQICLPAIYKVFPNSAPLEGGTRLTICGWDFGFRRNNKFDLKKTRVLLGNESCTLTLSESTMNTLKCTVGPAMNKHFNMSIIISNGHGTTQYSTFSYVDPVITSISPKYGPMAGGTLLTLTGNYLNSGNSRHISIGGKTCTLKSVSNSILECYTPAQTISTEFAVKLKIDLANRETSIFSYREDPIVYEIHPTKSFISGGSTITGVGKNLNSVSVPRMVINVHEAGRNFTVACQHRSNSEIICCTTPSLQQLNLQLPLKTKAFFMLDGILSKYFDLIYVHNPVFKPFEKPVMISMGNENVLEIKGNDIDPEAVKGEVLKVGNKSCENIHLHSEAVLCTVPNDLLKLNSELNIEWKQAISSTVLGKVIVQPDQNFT
# T1 sequence (P08581 25-1390): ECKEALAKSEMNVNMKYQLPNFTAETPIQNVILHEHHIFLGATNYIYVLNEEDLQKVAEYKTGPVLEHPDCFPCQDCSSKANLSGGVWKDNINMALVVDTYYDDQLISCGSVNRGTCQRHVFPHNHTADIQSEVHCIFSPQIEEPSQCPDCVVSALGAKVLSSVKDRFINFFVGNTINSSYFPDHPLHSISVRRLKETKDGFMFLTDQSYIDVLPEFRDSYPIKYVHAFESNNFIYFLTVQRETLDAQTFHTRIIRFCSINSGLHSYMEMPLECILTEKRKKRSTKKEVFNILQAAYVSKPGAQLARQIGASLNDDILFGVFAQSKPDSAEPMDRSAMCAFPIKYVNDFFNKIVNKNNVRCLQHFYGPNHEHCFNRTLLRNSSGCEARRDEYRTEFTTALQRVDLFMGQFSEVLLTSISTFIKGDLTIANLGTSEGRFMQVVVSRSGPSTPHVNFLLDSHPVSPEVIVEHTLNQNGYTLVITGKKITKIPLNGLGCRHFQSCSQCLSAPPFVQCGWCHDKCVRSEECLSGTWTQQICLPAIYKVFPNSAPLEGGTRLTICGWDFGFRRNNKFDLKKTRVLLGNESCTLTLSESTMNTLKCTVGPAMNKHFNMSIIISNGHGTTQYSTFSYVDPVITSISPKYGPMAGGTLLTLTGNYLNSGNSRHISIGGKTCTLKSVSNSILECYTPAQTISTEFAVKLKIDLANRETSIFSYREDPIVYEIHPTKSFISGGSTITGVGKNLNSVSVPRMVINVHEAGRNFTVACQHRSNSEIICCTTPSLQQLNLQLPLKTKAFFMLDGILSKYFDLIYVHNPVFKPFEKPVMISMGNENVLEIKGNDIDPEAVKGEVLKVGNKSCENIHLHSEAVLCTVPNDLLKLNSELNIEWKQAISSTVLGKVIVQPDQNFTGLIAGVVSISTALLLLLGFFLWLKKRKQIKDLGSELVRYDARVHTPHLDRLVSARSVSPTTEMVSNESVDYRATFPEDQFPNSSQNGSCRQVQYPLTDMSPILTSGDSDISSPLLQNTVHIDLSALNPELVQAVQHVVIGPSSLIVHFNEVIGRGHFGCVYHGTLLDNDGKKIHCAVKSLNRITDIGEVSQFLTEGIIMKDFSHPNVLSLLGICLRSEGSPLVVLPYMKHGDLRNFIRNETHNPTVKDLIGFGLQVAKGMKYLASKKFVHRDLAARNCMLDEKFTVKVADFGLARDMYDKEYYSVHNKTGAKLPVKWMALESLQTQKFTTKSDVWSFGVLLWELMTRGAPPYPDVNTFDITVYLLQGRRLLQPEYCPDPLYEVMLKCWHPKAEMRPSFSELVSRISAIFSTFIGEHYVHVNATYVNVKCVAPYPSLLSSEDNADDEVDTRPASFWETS
binder,measurement,setting,value
"Affy7 CAR (control) (other, residues of P2A left at the intracellular C-terminus are not included; also called parent Affy7 CAR-T cells; parental Affy7) GSEQKLISEEDLGSQVQLQQSGPELVRPGASVKMSCRASGYTFTSYWLHWVKQRPGQGLEWIGMIDPSNSDTRFNPNFKDKATLNVDRSSNTAYMLLSSLTSADSAVYYCATYGSYVSPLDYWGQGTSVTVSSGGGGSGGGGSGGGGSDIMMSQSPSSLTVSVGEKVTVSCKSSQSLLYTSSQKNYLAWYQQKPGQSPKLLIYWASTRESGVPDRFTGSGSGTDFTLTITSVKADDLAVYYCQQYYAYPWTFGGGTKLEIKRASTTTPAPRPPTPAPTIASQPLSLRPEACRPAAGGAVHTRGLDFACDFWVLVVVGGVLACYSLLVTVAFIIFWVRSKRSRLLHSDYMNMTPRRPGPTRKHYQPYAPPRDFAAYRSLRVKFSRSADAPAYQQGQNQLYNELNLGRREEYDVLDKRRGRDPEMGGKPRRKNPQEGLYNELQKDKMAEAYSEIGMKGERRRGKGHDGLYQGLSTATKDTYDALHMQALPPR","cytotoxicity, Normal Human Lung Cells, 8 hrs",[1],14.7
same,"cytotoxicity, Normal Human Lung Cells, 16 hrs",[1],33.3
same,"cytotoxicity, Normal Human Lung Cells, 24 hrs",[1],50.7
same,"cytotoxicity, Normal Human Lung Cells, 32 hrs",[1],57.1
same,"cytotoxicity, Normal Human Lung Cells, 40 hrs",[1],59.9
same,"cytotoxicity, Normal Human Lung Cells, 47 hrs",[1],56.5
same,EC50,[2],0.05 µM
same,"cytotoxicity, Normal Human Colon Cells, 8 hrs",[3],13.8
same,"cytotoxicity, Normal Human Colon Cells, 16 hrs",[3],29.3
same,"cytotoxicity, Normal Human Colon Cells, 24 hrs",[3],34.9
same,"cytotoxicity, Normal Human Colon Cells, 32 hrs",[3],42.8
same,"cytotoxicity, Normal Human Colon Cells, 40 hrs",[3],54.1
same,"cytotoxicity, Normal Human Colon Cells, 48 hrs",[3],60.1
same,"percent cytotoxicity, Hs746T, 24 hrs",[4],87.1%
same,"percent cytotoxicity, Hs746T, 48 hrs",[4],97.6%
same,"percent cytotoxicity, Hs746T, 72 hrs",[4],99.2%
same,"percent cytotoxicity, H1993, 24 hrs",[5],85.6%
same,"percent cytotoxicity, H1993, 48 hrs",[5],97.7%
same,"percent cytotoxicity, H1993, 72 hrs",[5],99.6%
same,"cytotoxicity, Normal Human Colon Cells, 8 hrs",[6],28.5
same,"cytotoxicity, Normal Human Colon Cells, 16 hrs",[6],33.9
same,"cytotoxicity, Normal Human Colon Cells, 24 hrs",[6],43.2
same,"cytotoxicity, Normal Human Colon Cells, 32 hrs",[6],57
same,"cytotoxicity, Normal Human Colon Cells, 40 hrs",[6],69.7
same,"cytotoxicity, Normal Human Colon Cells, 48 hrs",[6],79.4
same,"percent cytotoxicity, SNU638, 24 hrs",[7],78.6%
same,"percent cytotoxicity, SNU638, 48 hrs",[7],95.9%
same,"percent cytotoxicity, SNU638, 72 hrs",[7],99.5%
same,EC50,[8],0.1 µM
same,"cytotoxicity, Normal Human Kidney Cells, 8 hrs",[9],32.7
same,"cytotoxicity, Normal Human Kidney Cells, 16 hrs",[9],43.5
same,"cytotoxicity, Normal Human Kidney Cells, 24 hrs",[9],53.8
same,"cytotoxicity, Normal Human Kidney Cells, 32 hrs",[9],61.2
same,"cytotoxicity, Normal Human Kidney Cells, 40 hrs",[9],70.2
same,"cytotoxicity, Normal Human Kidney Cells, 48 hrs",[9],76.5
same,"cytotoxicity, Normal Human Liver Cells, 8 hrs",[10],23.4
same,"cytotoxicity, Normal Human Liver Cells, 16 hrs",[10],36.9
same,"cytotoxicity, Normal Human Liver Cells, 24 hrs",[10],50.7
same,"cytotoxicity, Normal Human Liver Cells, 32 hrs",[10],64
same,"cytotoxicity, Normal Human Liver Cells, 40 hrs",[10],71.2
same,"cytotoxicity, Normal Human Liver Cells, 48 hrs",[10],73.4
same,"cytotoxicity, Normal Human Liver Cells, 8 hrs",[11],17.7
same,"cytotoxicity, Normal Human Liver Cells, 16 hrs",[11],30.1
same,"cytotoxicity, Normal Human Liver Cells, 24 hrs",[11],38.6
same,"cytotoxicity, Normal Human Liver Cells, 32 hrs",[11],46.2
same,"cytotoxicity, Normal Human Liver Cells, 40 hrs",[11],59.1
same,"cytotoxicity, Normal Human Liver Cells, 48 hrs",[11],68.7
same,"cytotoxicity, Normal Human Kidney Cells, 8 hrs",[12],12.5
same,"cytotoxicity, Normal Human Kidney Cells, 16 hrs",[12],27.2
same,"cytotoxicity, Normal Human Kidney Cells, 24 hrs",[12],32.4
same,"cytotoxicity, Normal Human Kidney Cells, 32 hrs",[12],36.9
same,"cytotoxicity, Normal Human Kidney Cells, 40 hrs",[12],47.4
same,"cytotoxicity, Normal Human Kidney Cells, 48 hrs",[12],59
same,"cytotoxicity, Normal Human Lung Cells, 8 hrs",[13],31.8
same,"cytotoxicity, Normal Human Lung Cells, 16 hrs",[13],35.7
same,"cytotoxicity, Normal Human Lung Cells, 24 hrs",[13],43.2
same,"cytotoxicity, Normal Human Lung Cells, 32 hrs",[13],55.8
same,"cytotoxicity, Normal Human Lung Cells, 40 hrs",[13],67.5
same,"cytotoxicity, Normal Human Lung Cells, 48 hrs",[13],76
"Affy7-Y6I CAR (other, CAR on transduced human T cells; Y to I in HC CDR3; P2A remnant not included; also called MycT-Affy7-Y6I CAR-SSTR2) GSEQKLISEEDLGSQVQLQQSGPELVRPGASVKMSCRASGYTFTSYWLHWVKQRPGQGLEWIGMIDPSNSDTRFNPNFKDKATLNVDRSSNTAYMLLSSLTSADSAVYYCATIGSYVSPLDYWGQGTSVTVSSGGGGSGGGGSGGGGSDIMMSQSPSSLTVSVGEKVTVSCKSSQSLLYTSSQKNYLAWYQQKPGQSPKLLIYWASTRESGVPDRFTGSGSGTDFTLTITSVKADDLAVYYCQQYYAYPWTFGGGTKLEIKRASTTTPAPRPPTPAPTIASQPLSLRPEACRPAAGGAVHTRGLDFACDFWVLVVVGGVLACYSLLVTVAFIIFWVRSKRSRLLHSDYMNMTPRRPGPTRKHYQPYAPPRDFAAYRSLRVKFSRSADAPAYQQGQNQLYNELNLGRREEYDVLDKRRGRDPEMGGKPRRKNPQEGLYNELQKDKMAEAYSEIGMKGERRRGKGHDGLYQGLSTATKDTYDALHMQALPPR","percent cytotoxicity, Hs746T, 24 hrs",[4],1.5%
same,"percent cytotoxicity, Hs746T, 48 hrs",[4],45.4%
same,"percent cytotoxicity, Hs746T, 72 hrs",[4],69.4%
same,"percent cytotoxicity, H1993, 24 hrs",[5],11.7%
same,"percent cytotoxicity, H1993, 48 hrs",[5],45.8%
same,"percent cytotoxicity, H1993, 72 hrs",[5],73.5%
same,"cytotoxicity, Normal Human Colon Cells, 8 hrs",[6],15.1
same,"cytotoxicity, Normal Human Colon Cells, 16 hrs",[6],18.8
same,"cytotoxicity, Normal Human Colon Cells, 24 hrs",[6],20.8
same,"cytotoxicity, Normal Human Colon Cells, 32 hrs",[6],28.9
same,"cytotoxicity, Normal Human Colon Cells, 40 hrs",[6],32.5
same,"cytotoxicity, Normal Human Colon Cells, 48 hrs",[6],36.4
same,"percent cytotoxicity, SNU638, 24 hrs",[7],67%
same,"percent cytotoxicity, SNU638, 48 hrs",[7],83.6%
same,"percent cytotoxicity, SNU638, 72 hrs",[7],93.2%
same,EC50,[8],183 µM
same,Fold Change,[14],1830 fold
same,"cytotoxicity, Normal Human Kidney Cells, 8 hrs",[9],20.5
same,"cytotoxicity, Normal Human Kidney Cells, 16 hrs",[9],20.9
same,"cytotoxicity, Normal Human Kidney Cells, 24 hrs",[9],25.8
same,"cytotoxicity, Normal Human Kidney Cells, 32 hrs",[9],27.6
same,"cytotoxicity, Normal Human Kidney Cells, 40 hrs",[9],29.7
same,"cytotoxicity, Normal Human Kidney Cells, 48 hrs",[9],33.9
same,"cytotoxicity, Normal Human Liver Cells, 8 hrs",[10],7.8
same,"cytotoxicity, Normal Human Liver Cells, 16 hrs",[10],6.2
same,"cytotoxicity, Normal Human Liver Cells, 24 hrs",[10],7.4
same,"cytotoxicity, Normal Human Liver Cells, 32 hrs",[10],17.8
same,"cytotoxicity, Normal Human Liver Cells, 40 hrs",[10],16.4
same,"cytotoxicity, Normal Human Liver Cells, 48 hrs",[10],13.6
same,"cytotoxicity, Normal Human Lung Cells, 8 hrs",[13],23.1
same,"cytotoxicity, Normal Human Lung Cells, 16 hrs",[13],27.5
same,"cytotoxicity, Normal Human Lung Cells, 24 hrs",[13],26.9
same,"cytotoxicity, Normal Human Lung Cells, 32 hrs",[13],29.7
same,"cytotoxicity, Normal Human Lung Cells, 40 hrs",[13],29.9
same,"cytotoxicity, Normal Human Lung Cells, 48 hrs",[13],30.9
